Molecular target: thrombin
Test: cell-based or functional assay

| Substance | Secondary rate constant (+ hep): thrombin inhibition secondary rate constant in the presence of heparin | Secondary rate constant (- hep): thrombin inhibition secondary rate constant in the absence of heparin |
| --- | --- | --- |
| ATIII MS705 peak (3) fraction (recombinant human antithrombin III produced by the FUT8 gene-double-knockout CHO/DG44 transformant pKAN-ATIII AFMS705, heparin-affinity peak (3)) (from UniProt P01008 33-464) | 2.6e+07 M⁻¹ s⁻¹ | 8800 M⁻¹ s⁻¹ |
| ATIII MS705 peak (2) fraction (recombinant human antithrombin III produced by the FUT8 gene-double-knockout CHO/DG44 transformant pKAN-ATIII AFMS705, heparin-affinity peak (2)) (from UniProt P01008 33-464) | 2.5e+07 M⁻¹ s⁻¹ | – |
| ATIII DG44 peak (2) fraction (recombinant human antithrombin III produced by the CHO/DG44 transformant pKAN-ATIII AFDG44, heparin-affinity peak (2)) (from UniProt P01008 33-464) | 2e+07 M⁻¹ s⁻¹ | 8600 M⁻¹ s⁻¹ |

Other lines, results leading:

| Secondary rate constant (+ hep): thrombin inhibition secondary rate constant in the presence of heparin | Secondary rate constant (- hep): thrombin inhibition secondary rate constant in the absence of heparin | Substance |
| --- | --- | --- |
| 2.3e+07 M⁻¹ s⁻¹ | 8200 M⁻¹ s⁻¹ | Neuart (human plasma-derived antithrombin III preparation, manufactured by Mitsubishi Pharma Corporation) (from UniProt P01008 33-464) |
| 8.7e+06 M⁻¹ s⁻¹ | 7700 M⁻¹ s⁻¹ | ATIII DG44 peak (1) fraction (recombinant human antithrombin III produced by the CHO/DG44 transformant pKAN-ATIII AFDG44, heparin-affinity peak (1)) (from UniProt P01008 33-464) |
